In US20240228562A1, “NOVEL LIPOCALIN MUTEINS SPECIFIC FOR CONNECTIVE TISSUE GROWTH FACTOR (CTGF)” (PIERIS PHARMACEUTICALS GMBH, priority 2021, published 2024):
Changes are numbered by the printed parent chain.

T1: Rat CTGF (Rattus norvegicus, UniProt Q9R1E9)
T1 construct: purchased R&D Systems
T1 sequence (Q9R1E9 25-347): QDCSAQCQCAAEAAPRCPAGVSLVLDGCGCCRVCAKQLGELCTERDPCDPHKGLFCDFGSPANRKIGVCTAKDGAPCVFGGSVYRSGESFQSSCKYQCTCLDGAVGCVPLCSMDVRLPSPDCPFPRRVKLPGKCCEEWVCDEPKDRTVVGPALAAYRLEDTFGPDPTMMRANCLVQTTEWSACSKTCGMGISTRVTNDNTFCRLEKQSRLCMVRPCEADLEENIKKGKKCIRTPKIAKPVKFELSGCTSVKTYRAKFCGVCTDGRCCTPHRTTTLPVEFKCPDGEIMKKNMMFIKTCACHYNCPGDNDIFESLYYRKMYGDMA

T2: Murine CTGF (Mus musculus, UniProt P29268)
T2 construct: purchased Abbexa
T2 sequence (P29268 26-348): T1 sequence (Q9R1E9 25-347) with R16H, V148A

B1: SEQ ID NO: 6: optimized CTGF-binding hNGAL lipocalin mutein (protein)
chain: QDSTSDLIPAPPLSKVPLQQNFQDNQFQGKWYVVGRAGNNQLREDKSPPKMWATIYELKEDKSYDVTHVHFSTKKCRYIIDTFVPGSQPGEFTAGAIKSGPGLTSPLVRVVSTNYNQHAMVFFKWVTQNREWFTITLYGRTKELTSELKENFIRFSKSLGLPENHIVFPVPIDQCIDG
modifications: lipocalin mutein
B2: SEQ ID NO: 5: optimized CTGF-binding hNGAL lipocalin mutein (protein)
chain: QDSTSDLIPAPPLSKVPLQQNFQDNQFQGKWYVVGKAGNALREDKEPPKMWATIYELKEDKSYDVTHVHFLTKKCKYLIDTFVPGSQPGEFTIGAIKSGPGLTSPLVRVVSTNYNQHAMVFFKWVSQNREWFTITLYGRTKELTSELKENFIRFSKSLGLPENHIVFPVPIDQCIDG
modifications: lipocalin mutein
B3: SEQ ID NO: 31: optimized CTGF-binding hNGAL lipocalin mutein (protein)
chain: QDSTSDLIPAPPLSKVPLQQNFQDNQFQGKWYVVGWAGNVKLREDKQPQKMSATIYELKEDKSYDVTEVVFEQKKCHYIIKTFVPGSQPGEFTAGDIKSPPGYTSSLVRVVSTNYNQHAMVFFKKVSQNREFFWITLYGRTKELTSELKENFIRFSKSLGLPENHIVFPVPIDQCIDG
modifications: lipocalin mutein
B4: SEQ ID NO: 36: optimized CTGF-binding hNGAL lipocalin mutein (protein)
chain: B3 chain with Q49A, S127G
modifications: lipocalin mutein
B5: SEQ ID NO: 34: optimized CTGF-binding hNGAL lipocalin mutein (protein)
chain: B3 chain with K41I, Q49F, A94L, Y103E, S106T
modifications: lipocalin mutein

Key:
[1] = biological target: T1, Rat CTGF; assay: SPR binding kinetics and affinity, rat CTGF; design: key to Rat CTGF kon / Rat CTGF koff / Rat CTGF KD: B binding without determination of kinetics constants; conditions: 25° C., 1:1 binding model
Description: (§1) Surface plasmon resonance (SPR) was used to measure binding kinetics and affinity of the representative lipocalin muteins disclosed herein.
(§2) The binding of exemplary lipocalin muteins to human (Creative Biomart), cynomolgus, rat (R&D Systems) and mouse CTGF (Abbexa) was determined by SPR using a Biacore instrument (Cytiva, formerly GE Healthcare). Some targets were fused to a human IgG1 Fc tag, and captured via the anti-human IgG antibody kit, others were directly immobilized.
(§3) For some measurements, human CTGF with a human IgG1 Fc Tag or rat or murine CTGF without a tag were directly immobilized to a CM5 Chip. The carboxyl groups on the chip were activated using 1-ethyl-3-(3-dimethylaminopropyl)-carbodiimide (EDC) and N-hydroxysuccinimide (NHS). Subsequently, the targets at a concentration of 3-5 μg/mL in 10 mM sodium acetate (pH) 4.5 were applied at a flow rate of 10 μL/min until an immobilization level of 300-1100 resonance units was achieved. Residual non-reacted NHS-esters were blocked by passing a solution of 1 M ethanolamine across the surface. The reference channel was activated/deactivated. For the capture setting, targets with an IgG Fc Tag at 0.25-2.5 μg/mL in HBS-EP+ buffer were captured by the anti-human IgG-Fc antibody at the chip surface for 180 s at a flow rate of 10 μL/min.
(§4) The binding assay was carried out with a contact time of 180 s, a dissociation time of 900-3600 s and a flow rate of 30 μL/min. All measurements were performed at 25° C. […] For the directly immobilized targets, the same regeneration conditions were used. Prior to the protein measurements, three startup cycles were performed for conditioning purposes. Data were evaluated with Biacore Evaluation software. Double referencing was used and the 1:1 binding model was used to fit the raw data.
(§5) The values determined for kon, koff and the resulting equilibrium dissociation constant (KD) for exemplary lipocalin muteins are summarized in Table 4.

[2] = biological target: T2, Murine CTGF; assay: SPR binding kinetics and affinity, murine CTGF; design: key to Murine CTGF kon / Murine CTGF koff / Murine CTGF KD: B binding without determination of kinetics constants; conditions: 25° C., 1:1 binding model
Method in brief: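 Targets either amine-coupled to CM5 chip (300–1100 RU; Fc-tagged human, untagged rat/murine) or Fc-captured via anti-human IgG; muteins injected 180 s contact, 900–3600 s dissociation, 30 μL/min, 25° C. Double-referenced sensorgrams fit to 1:1 model giving kon, koff and KD.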

[3] = Thermal stability assessment by nanoDSC; assay type: physicochemical; conditions: 1 mg/mL in PBS, scan 25-100° C. at 1° C./min; for TM: major transition
Method in brief: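 CTGF-specific lipocalin muteins at 1 mg/mL in PBS scanned from 25 to 100° C at 1° C/min by capillary nano-DSC. Where several transitions occur, the Tm of the major unfolding event is reported, along with onset temperature. Some muteins were expressed in E. coli, others in CHO cells.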

[4] = biological target: T3, human CTGF (Homo sapiens, UniProt P29279, H83D); assay: SPR binding kinetics and affinity, human CTGF; conditions: 25° C., 1:1 binding model
T3 construct: purchased Creative Biomart
T3 sequence (P29279 with tags, fused parts or gaps H83D): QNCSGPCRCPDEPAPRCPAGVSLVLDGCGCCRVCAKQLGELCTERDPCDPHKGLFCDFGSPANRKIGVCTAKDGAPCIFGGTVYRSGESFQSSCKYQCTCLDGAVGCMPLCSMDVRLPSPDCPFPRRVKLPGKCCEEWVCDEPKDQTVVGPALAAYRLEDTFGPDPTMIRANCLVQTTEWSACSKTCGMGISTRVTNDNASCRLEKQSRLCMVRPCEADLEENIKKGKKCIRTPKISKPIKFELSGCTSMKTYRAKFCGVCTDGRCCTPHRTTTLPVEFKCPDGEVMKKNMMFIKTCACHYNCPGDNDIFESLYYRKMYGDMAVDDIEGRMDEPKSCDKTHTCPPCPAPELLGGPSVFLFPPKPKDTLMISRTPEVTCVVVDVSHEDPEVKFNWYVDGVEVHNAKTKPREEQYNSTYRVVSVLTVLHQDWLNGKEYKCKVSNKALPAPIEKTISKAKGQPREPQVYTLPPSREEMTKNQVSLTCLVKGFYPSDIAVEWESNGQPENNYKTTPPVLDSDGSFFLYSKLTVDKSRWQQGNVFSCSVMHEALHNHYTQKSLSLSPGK
Method in brief: (§6)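 Biacore SPR at 25 °C; CTGF either Fc-captured via anti-human IgG (HBS-EP+) or amine-coupled to CM5 (300–1100 RU). Muteins injected 180 s contact, 900–3600 s dissociation, 30 μL/min.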

[5] = biological target: T4, human CTGF (Homo sapiens, UniProt P29279); assay: SPR binding kinetics and affinity, human CTGF; conditions: 25° C., 1:1 binding model
T4 construct: purchased Creative Biomart
T4 sequence (P29279 with tags, fused parts or gaps H83D): as above
Method in brief: as §6

[6] = system: cynomolgus CTGF; assay: SPR binding kinetics and affinity, cynomolgus CTGF; conditions: 25° C., 1:1 binding model
cynomolgus CTGF, sequence (as listed by the source): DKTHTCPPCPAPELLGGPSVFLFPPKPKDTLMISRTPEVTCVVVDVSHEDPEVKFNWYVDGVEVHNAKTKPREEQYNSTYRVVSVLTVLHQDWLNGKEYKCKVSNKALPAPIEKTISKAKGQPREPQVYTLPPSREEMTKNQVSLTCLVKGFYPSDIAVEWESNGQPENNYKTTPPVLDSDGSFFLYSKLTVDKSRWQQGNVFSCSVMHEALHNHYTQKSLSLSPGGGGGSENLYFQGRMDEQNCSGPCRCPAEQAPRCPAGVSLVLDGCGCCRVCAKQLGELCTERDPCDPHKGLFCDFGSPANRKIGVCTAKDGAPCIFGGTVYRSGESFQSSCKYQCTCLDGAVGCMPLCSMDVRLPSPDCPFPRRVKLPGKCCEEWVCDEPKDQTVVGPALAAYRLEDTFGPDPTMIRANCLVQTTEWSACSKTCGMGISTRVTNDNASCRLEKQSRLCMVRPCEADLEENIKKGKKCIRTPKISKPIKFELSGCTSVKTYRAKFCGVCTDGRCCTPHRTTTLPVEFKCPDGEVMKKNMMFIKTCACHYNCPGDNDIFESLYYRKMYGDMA
Description: as §1, §2, §3, §4, §5

| Molecule | Rat CTGF KD [1] | Rat CTGF koff [1] | Rat CTGF kon [1] | Murine CTGF KD [2] | Murine CTGF koff [2] | Murine CTGF kon [2] | ONSET MELTING [3] [°C] | TM [3] [°C] | human CTGF kon [4] [M⁻¹ s⁻¹] | human CTGF koff [5] [s⁻¹] | cynomolgus CTGF koff [6] [s⁻¹] | cynomolgus CTGF kon [6] [M⁻¹ s⁻¹] |
| --- | --- | --- | --- | --- | --- | --- | --- | --- | --- | --- | --- | --- |
| B1 | B | B | B | B | B | B | 48 | 66 | 290000 | 0.000149 |  |  |
| B2 |  | 0.000362 s⁻¹ | 294000 M⁻¹ s⁻¹ | B | B | B | 52 | 66 | 211000 | 6.65e-05 |  |  |
| B3 |  | 0.000423 s⁻¹ | 223000 M⁻¹ s⁻¹ |  | 0.000444 s⁻¹ | 281000 M⁻¹ s⁻¹ | 59 | 75 | 195000 | 4.85e-05 | 7.31e-05 | 162000 |
| B4 |  |  |  |  | 0.00052 s⁻¹ | 310000 M⁻¹ s⁻¹ | 58 | 73 | 165000 | 6.95e-05 | 9.77e-05 | 141000 |
| B5 |  |  |  |  | 0.00286 s⁻¹ | 240000 M⁻¹ s⁻¹ | 67 | 82 | 150000 | 0.000169 | 0.000238 | 139000 |
